Read-outs that look alike come from different tables or passages of the source.

Data on one molecule can be found in doi:10.1101/2025.10.21.683800 (bioRxiv, 2025).

Assay [1] concerns the target T1, MBP-FLAG-PPP1CC-His (human, UniProt P36873 1-323). As to the kind of experiment: ITC. (Isothermal titration calorimetry measures the heat released or taken up as one component is titrated into another.)
Assay [2] addresses T1, MBP-FLAG-PPP1CC-His. The assay is described as follows: ITC. This is another data set of the same source.

T1 sequence (P36873 whole entry): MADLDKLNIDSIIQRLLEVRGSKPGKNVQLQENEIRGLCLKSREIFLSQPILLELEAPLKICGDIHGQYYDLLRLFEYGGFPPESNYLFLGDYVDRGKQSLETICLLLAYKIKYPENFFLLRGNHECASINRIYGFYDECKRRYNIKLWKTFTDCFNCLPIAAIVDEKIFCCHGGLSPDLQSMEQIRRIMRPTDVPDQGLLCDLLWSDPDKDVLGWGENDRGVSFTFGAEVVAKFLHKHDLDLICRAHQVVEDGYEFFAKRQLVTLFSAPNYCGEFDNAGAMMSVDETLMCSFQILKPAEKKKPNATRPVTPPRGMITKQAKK

B1: recombinant PPP1R2 (natural protein)
chain: MAASTASHRPIKGILKNKTSTTSSMVASAEQPRGNVDEELSKKSQKWDEMNILATYHPADKDYGLMKIDEPSTPYHSMMGDDEDACSDTEATEAMAPDILARKLAAAEGLEPKYRIQEQESSGEEDSDLSPEEREKKRQFEMKRKLHYNEGLNIKLARQLISKDLHDDDEDEEMLETADGESMNTEESNQGSTPSDQQQNKLRSS
As to B1, the Kd (commonly the constant that tells how readily two partners part at equilibrium) amounted to 1130 nM in assay [1] and 3590 nM in assay [2].
